In US20230146665A1 (Xencor, published 2023):

Target: T1, IL18BP (human, UniProt O95998 31-194)
T1 construct: also called ILBP antigen
T1 sequence (looked up): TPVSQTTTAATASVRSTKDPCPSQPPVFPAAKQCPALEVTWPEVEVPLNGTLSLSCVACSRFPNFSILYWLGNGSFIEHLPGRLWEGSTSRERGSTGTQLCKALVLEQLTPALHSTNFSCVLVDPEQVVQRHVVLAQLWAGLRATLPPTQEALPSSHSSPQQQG
Experiment: Octet (BLI), IL18BP as ligand on the biosensor, IL18 fusion as analyte
Excerpt: Binding of variant IL18 to IL18 receptors or IL18BP were investigated using Octet, a BioLayer Interferometry (BLI)-based method. Experimental steps for Octet generally include the following: Immobilization (capture of ligand to a biosensor); Association (dipping of ligand-coated biosensors into wells containing serial dilutions of the analyte); and Dissociation (returning of biosensors to well containing buffer) in order to determine the affinity of the test articles. A reference well containing buffer alone was also included in the method for background correction during data processing. In particular, ligands used were IL18R1, IL18R1xIL18RAP heterodimer, or IL18BP, and the analytes were IL18 fusions. Illustrative sequences for these antigens are depicted in FIGS. 1-3 (respectively for human, mouse, and cynomolgus monkey).

B1: XENP40253 (Fc fusion)
chain: YFGKLESKLSVIRNLNDQVLFIDQGNRPLFEDMTDSDSRDNAPRTIFIISMYDDSQPRGMAVTISVKSEKISTLSSENKIISFKEMNPPDNIKDTKSDIIFFQRSVPGHDNKMQFESSSYEGYFLASEKERDLFKLILKKEDELGDRSIMFTVQNEDEPKSSDKTHTCPPCPAPPVAGPSVFLFPPKPKDTLMISRTPEVTCVVVDVKHEDPEVKFNWYVDGVEVHNAKTKPREEEYNSTYRVVSVLTVLHQDWLNGKEYKCKVSNKALPAPIEKTISKAKGQPREPQVYTLPPSREEMTKNQVSLTCDVSGFYPSDIAVEWESDGQPENNYKTTPPVLDSDGSFFLYSKLTVDKSRWEQGDVFSCSVMHEALHNHYTQKSLSLSPG
heavy: QVQLQESGPGLVRPSQTLSLTCTVSGFSLTGYGVNWVRQPPGRGLEWIGMIWGDGNTDYNSALKSRVTMLKDTSKNQFSLRLSSVTAADTAVYYCARERDYRLDYWGQGSLVTVSSASTKGPSVFPLAPSSKSTSGGTAALGCLVKDYFPEPVTVSWNSGALTSGVHTFPAVLQSSGLYSLSSVVTVPSSSLGTQTYICNVNHKPSNTKVDKKVEPKSCDKTHTCPPCPAPPVAGPSVFLFPPKPKDTLMISRTPEVTCVVVDVKHEDPEVKFNWYVDGVEVHNAKTKPREEQYNSTYRVVSVLTVLHQDWLNGKEYKCKVSNKALPAPIEKTISKAKGQPREPQVYTLPPSREQMTKNQVKLTCLVKGFYPSDIAVEWESNGQPENNYKTTPPVLDSDGSFFLYSKLTVDKSRWQQGNVFSCSVMHEALHNRFTQKSLSLSPG
light: DIQMTQSPSSLSASVGDRVTITCRASGNIHNYLAWYQQKPGKAPKLLIYYTTTLADGVPSRFSGSGSGTDYTFTISSLQPEDIATYYCQHFWSTPRTFGQGTKVEIKRTVAAPSVFIFPPSDEQLKSGTASVVCLLNNFYPREAKVQWKVDNALQSGNSQESVTEQDSKDSTYSLSSTLTLSKADYEKHKVYACEVTHQGLSSPVTKSFNRGEC
notes: also called K53D single substitution variant; K53D
binding result: no binding
